Assays:
Assay in all cases: ITC; SCE at 60 µM in the cell (300 µl loaded), SUMO1-Flag-His at 600 µM in the syringe; 20 injections; 25°C; 20 mM Tris, 5 mM MgCl2, pH 7.4; MicroCal ITC 200
Conditions in all cases: both partners purified
[1] = target: T1, Arabidopsis SUMO-conjugating enzyme SCE1, wild type (Arabidopsis, UniProt Q42551 1-160)
T1 construct: SUMO-conjugating enzyme SCE1, Arabidopsis thaliana, AT3G57870; also called SCE WT; WT SCE; source: MonoS ion exchange for ITC
T1 sequence (looked up): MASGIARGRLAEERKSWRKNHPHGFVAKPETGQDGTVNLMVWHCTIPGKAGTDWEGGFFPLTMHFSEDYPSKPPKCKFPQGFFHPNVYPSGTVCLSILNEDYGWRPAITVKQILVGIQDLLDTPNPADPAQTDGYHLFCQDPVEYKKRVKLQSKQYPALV

SCE K15R = target: T2, SCE K15R (Arabidopsis, UniProt Q42551 1-160, K15R)
T2 construct: SUMO-conjugating enzyme SCE1, Arabidopsis thaliana, AT3G57870, with K15R; also called SCE1 K15R; source: MonoS ion exchange for ITC
T2 sequence (looked up): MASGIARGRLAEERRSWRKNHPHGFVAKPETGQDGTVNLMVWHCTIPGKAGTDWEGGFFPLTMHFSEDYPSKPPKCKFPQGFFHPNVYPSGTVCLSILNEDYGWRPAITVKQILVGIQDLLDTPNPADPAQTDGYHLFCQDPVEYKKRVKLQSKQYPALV

SCE K28R = target: T3, SCE K28R (Arabidopsis, UniProt Q42551 1-160, K28R)
T3 construct: SUMO-conjugating enzyme SCE1, Arabidopsis thaliana, AT3G57870, with K28R; source: MonoS ion exchange for ITC
T3 sequence (looked up): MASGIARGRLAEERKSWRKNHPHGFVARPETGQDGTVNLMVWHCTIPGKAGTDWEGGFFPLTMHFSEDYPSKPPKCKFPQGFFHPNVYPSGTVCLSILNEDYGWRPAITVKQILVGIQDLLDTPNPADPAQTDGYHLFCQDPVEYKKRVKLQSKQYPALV

B1: SUMO1-Flag-His (natural protein, Arabidopsis, UniProt P55852 1-93, looked up)
chain: MSANQEEDKKPGDGGAHINLKVKGQDGNEVFFRIKRSTQLKKLMNAYCDRQSVDMNSIAFLFDGRRLRAEQTPDELDMEDGDEIDAMLHQTGG
notes: SUMO1 (small ubiquitin-related modifier 1), Arabidopsis; The SUMO preparations are conjugated in vitro without a protease, so the processed form ending in Gly-Gly is surmised; also called N-terminally tagged SUMO (Flag-His); source: purified (Ni2+ resin, then MonoQ ion exchange for ITC); not shown: Flag, N-terminal, kept; His, N-terminal, kept
[1]
  Kd: 710 ± 230 µM
SCE K15R
  Kd: 33 ± 17 µM
SCE K28R
  Kd: 270 ± 330 µM
